In article PMC12219854 (Nature Communications, 2025):

What was measured:
[1] = target: GST-Bahcc1^TTD (murine Bahcc1 amino acids 1904-2044) (mouse, UniProt Q3UHR0 1904-2044); test: pull-down
[2] = target: GST-53BP1^TTD (amino acids 1235-1709) (UniProt Q12888 1235-1709); test: pull-down
GST-53BP1^TTD (amino acids 1235-1709), sequence (Q12888 1235-1709): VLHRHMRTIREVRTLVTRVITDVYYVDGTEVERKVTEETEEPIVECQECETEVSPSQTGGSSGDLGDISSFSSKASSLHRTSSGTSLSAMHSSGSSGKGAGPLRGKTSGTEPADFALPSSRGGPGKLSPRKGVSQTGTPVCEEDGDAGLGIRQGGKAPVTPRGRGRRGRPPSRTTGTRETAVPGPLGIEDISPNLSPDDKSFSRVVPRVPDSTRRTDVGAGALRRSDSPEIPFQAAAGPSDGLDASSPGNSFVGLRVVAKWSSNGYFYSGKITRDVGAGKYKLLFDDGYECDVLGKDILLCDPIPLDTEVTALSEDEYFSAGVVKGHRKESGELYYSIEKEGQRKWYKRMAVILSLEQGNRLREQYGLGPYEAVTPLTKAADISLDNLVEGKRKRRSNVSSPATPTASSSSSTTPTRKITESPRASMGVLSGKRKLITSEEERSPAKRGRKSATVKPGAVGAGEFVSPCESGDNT

GST-Bahcc1^TTD (murine Bahcc1 amino acids 1904-2044), sequence (Q3UHR0 1904-2044): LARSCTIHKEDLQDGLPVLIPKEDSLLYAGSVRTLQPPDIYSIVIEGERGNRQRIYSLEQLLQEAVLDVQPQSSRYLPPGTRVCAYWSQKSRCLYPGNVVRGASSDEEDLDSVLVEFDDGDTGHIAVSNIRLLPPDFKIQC

Row | Binder | binding result [1] | binding result [2]
1 | GKGGAKRHRKVLRDNIQ (peptide, UniProt P62805 12-28, looked up, monomethyl-lysine at K20; biotin (position not given)) [biotinylated H4 peptide, amino acids 11 to 27, H4K20me1] | binds | –
2 | GKGGAKRHRKVLRDNIQ (peptide, UniProt P62805 12-28, looked up, dimethyl-lysine at K20; biotin (position not given)) [biotinylated H4 peptide, amino acids 11 to 27, H4K20me2] | – | binds
